Experimental data as given in patent US20180215804A1.

What was measured:
CD28-Fc (human) = CD28-Fc (human) (UniProt P10747); test: not stated at that place; binding to human CD28 (SPR with CD28-Fc is the only affinity experiment of the filing)
[1] = biological target: CD28/GFP fusion protein on transfected HEK293T cells (UniProt P10747); test: competition: flow cytometry contour plot, CD28/GFP cells co-incubated with B7-2/Cherry cells in the presence of p2TA at 0.3 µg ml-1 (16.0 % without peptide, Fig. 6D)
[2] = biological target: CD28/GFP fusion protein on transfected HEK293T cells (UniProt P10747); test: competition: flow cytometry contour plot, CD28/GFP cells co-incubated with B7-2/Cherry cells in the presence of p2TA at 1 µg ml-1 (16.0 % without peptide, Fig. 6D)
[3] = biological target: CD28/GFP fusion protein on transfected HEK293T cells (UniProt P10747); test: flow cytometry contour plot, CD28/GFP cells co-incubated with B7-2C/Cherry cells, no peptide (negative control)

percent double labeled cells (upper right quadrant) [3] [%]	Substance	Kd (CD28-Fc (human)) [µM]	percent double labeled cells (upper right quadrant) at 0.3 µg ml-1 p2TA [1] [%]	percent double labeled cells (upper right quadrant) at 1 µg ml-1 p2TA [2] [%]
–	(D-Ala)-p2TA-(D-Ala) (peptide)	2	10.3	8.1
1.5	B7-2C/Cherry fusion protein on transfected HEK293T cells (from UniProt P42081 24-329) (ligand)	–	–	–
